Holding throughout (test): two-hybrid library CCNG1;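 also: natural log of median RNA to DNA barcode read ratio; higher means stronger binding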
In one experiment the target is T1, P9mSN.
T1 chain: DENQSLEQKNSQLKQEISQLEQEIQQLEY

The next experiment concerns the target T2, P6mSN.
T2 chain: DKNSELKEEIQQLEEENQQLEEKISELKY

The target of a further experiment is T3, P2mSN.
T3 chain: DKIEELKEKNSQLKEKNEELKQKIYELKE

For a further experiment, the target named is T4, P7mSN.
T4 chain: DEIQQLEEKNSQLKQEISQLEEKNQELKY

For the next experiment, the target named is T5, P8mSN.
T5 chain: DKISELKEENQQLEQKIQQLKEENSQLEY

The next experiment deals with T6, P4mSN.
T6 chain: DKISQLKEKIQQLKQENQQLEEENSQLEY

For another experiment, the target named is T7, P5mSN.
T7 chain: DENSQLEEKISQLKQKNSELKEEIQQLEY

Another experiment addresses T8, P1mSN.
T8 chain: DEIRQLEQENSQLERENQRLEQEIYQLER

A further experiment concerns the target T9, P3mSN.
T9 chain: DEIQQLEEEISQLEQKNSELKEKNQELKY

In a further experiment the target is T10, P4bH1.
T10 chain: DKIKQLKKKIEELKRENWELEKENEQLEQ

Another experiment deals with T11, 4H496-bH.
T11 chain: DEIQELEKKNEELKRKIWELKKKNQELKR

A further experiment deals with T12, 4H3632-bH.
T12 chain: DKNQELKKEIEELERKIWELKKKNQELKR

The next experiment concerns the target T13, 4H3070-bH.
T13 chain: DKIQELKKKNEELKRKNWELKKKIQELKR
To be noted: mean of both orientations.

Another experiment has as its target T14, 4H342-bH.
T14 chain: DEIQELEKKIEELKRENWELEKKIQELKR

Turning to DEIRQLEQENSQLERENQRLEQEIYQLER [P1mSN], the interaction score with P9mSN was -2.07; with P6mSN it was -0.582; with P2mSN, 1.73; in the experiment with P7mSN it was -1.01; in the experiment with P8mSN it was -1.17; with P4mSN, -1.09. Besides, the interaction score is -1.04 in the experiment with P5mSN, -1.23 with P1mSN and -1.95 with P3mSN.

Turning to DKIEELKEKNSQLKEKNEELKQKIYELKE [P2mSN], the interaction score was -1.13 in the experiment with P9mSN; -1.37 with P4bH1; -0.752 with P6mSN; -1.97 with P2mSN; -0.243 with P7mSN; -1.26 in the experiment with P8mSN. Moreover, the interaction score in the experiment with P4mSN is -0.0295; with P5mSN, -0.724; with P3mSN it was -0.831.

With DKIQELKKKNEELKRKNWELKKKIQELKR [4H3070-bH], the interaction score with 4H496-bH is -0.307; with 4H3632-bH, -0.214; with 4H3070-bH it was 0.665; with 4H342-bH it was 1.49.
